A short description of this data set: voltage response curve (normalized fluorescence versus static substrate potential) to determine target charge. It counts as physicochemical. The settings on record: protein bound to probe DNA. The text has this: Note that so far no time dependence has been introduced, since the electric field has been kept stationary. However, with the above equation, it is possible to calculate the fluorescence signal for different values of the applied static potential Φ. The corresponding curve is referred to as “voltage response curve” in the following.
Further note that the model so far only accounted for the free probe molecule, i.e. the double-stranded DNA, but not for any target molecule. As long as the stationary state is concerned, i.e. without a time-dependent electrical field, the target molecule will mainly affect the results due to a possible charge thereof. In fact, based on the above understanding of the stochastic behaviour of the probe molecule, the inventors conjectured that it should be possible to qualitatively and quantitatively determine the charge of the target molecule from the voltage response curve.
The corresponding voltage response curve is shown by filled circles, while the voltage response curve of the free DNA is again shown by open diamonds. It can be seen that the voltage response curve in presence of the avidin also differs noticeably from that of the DNA alone.

For the substance “avidin: positively charged protein bound to the probe DNA”, the “charge of the target molecule” value was “positively charged”.

For the substance “streptavidin: negatively charged protein bound to the probe DNA”, the “charge of the target molecule” value was “negatively charged”.

Source of the values: patent US9885687B2, “Apparatus and method for evaluating characteristics of target molecules” (Dynamic Biosensors GmbH, priority 2010, dated 2018).
